Reference: publication PMC8486122 (2021)

B1: M1H5 Fab (Fab, V domains shown)
VH: EVNLVESGGDLVKPGGSLKLSCAASGFTFSSYGMSWVRQTPDKRLEWVATISSGGTYTYYPDSVKGRFTISRDNAKNTLYLQMSSLKSEDTAMYYCAREIMRGGGYYFDYWSQGTTLTVSS
VL: DIQMIQSTSSLSASLGDRVTISCRASQDISNYLNWYQQKPDGTVKLLIYYTSRLHSGVPSRFSGSGSGTDYSLTISNLEQEDIATYFCQQGNTLPYTFGGGTKLEIK
B2: M2B10 Fab (Fab, V domains shown)
VH: EVQLQQSGAELVRPGTSVKVSCKASGYAFTNYLIEWVKQRPGQGLEWIGVINPGIGNTNYNEKFKGKATLTADKSSSTVYMQLSSLTSDDSAVYFCARGLNYGSSQHWYFDVWGAGTSVTVSS
VL: IVMTQSPAILSASLGERVTMTCTASSSVSSSYLHWYQQKPGSSPKLWIYSTSNLASGVPARFSGSGSGTSYSLTISSMEAEDAATYYCHQYHRSPPTFGAGTKLEIK

Biological target: RTX751 (ACT residues 751–1706) (Bordetella pertussis, UniProt P0DKX7 751-1706)
Assay: SPR

Chain of RTX751 (ACT residues 751–1706) (P0DKX7 751-1706): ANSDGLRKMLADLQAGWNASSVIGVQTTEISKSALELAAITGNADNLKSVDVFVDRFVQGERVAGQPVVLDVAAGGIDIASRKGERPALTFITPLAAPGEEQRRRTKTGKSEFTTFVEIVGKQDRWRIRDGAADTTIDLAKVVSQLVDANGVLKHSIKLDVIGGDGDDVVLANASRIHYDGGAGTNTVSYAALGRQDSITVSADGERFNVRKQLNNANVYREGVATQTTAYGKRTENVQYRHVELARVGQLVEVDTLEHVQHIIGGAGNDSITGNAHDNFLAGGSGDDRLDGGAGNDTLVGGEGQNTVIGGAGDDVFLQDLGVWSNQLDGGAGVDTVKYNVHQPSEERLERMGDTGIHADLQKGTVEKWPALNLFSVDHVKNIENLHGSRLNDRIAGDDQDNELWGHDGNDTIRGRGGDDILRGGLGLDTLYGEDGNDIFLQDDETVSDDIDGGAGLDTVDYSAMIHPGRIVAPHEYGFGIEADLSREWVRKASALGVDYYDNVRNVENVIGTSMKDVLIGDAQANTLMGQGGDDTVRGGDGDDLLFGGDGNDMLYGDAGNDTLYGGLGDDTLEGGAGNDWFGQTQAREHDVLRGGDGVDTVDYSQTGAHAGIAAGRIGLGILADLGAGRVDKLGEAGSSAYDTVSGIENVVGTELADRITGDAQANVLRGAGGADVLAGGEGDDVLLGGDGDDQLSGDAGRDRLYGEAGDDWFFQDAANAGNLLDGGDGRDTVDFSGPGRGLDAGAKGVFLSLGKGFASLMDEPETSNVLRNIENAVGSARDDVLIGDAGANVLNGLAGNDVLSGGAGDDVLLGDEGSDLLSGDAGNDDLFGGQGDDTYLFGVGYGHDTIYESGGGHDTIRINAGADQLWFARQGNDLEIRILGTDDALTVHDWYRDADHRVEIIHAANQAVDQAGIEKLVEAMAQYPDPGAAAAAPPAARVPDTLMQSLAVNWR

Binder	koff [s⁻¹]
B1	0.00102
B2	0.00121
